{"source": "patent US20090175866A1", "about": "“TREATMENT OF B-CELL MALIGNANCIES” (priority 2004, published 2009)", "key": {"FGFR3": {"molecular_target": "FGFR3 (Homo sapiens, UniProt P22607)", "sequence (P22607 23-806)": "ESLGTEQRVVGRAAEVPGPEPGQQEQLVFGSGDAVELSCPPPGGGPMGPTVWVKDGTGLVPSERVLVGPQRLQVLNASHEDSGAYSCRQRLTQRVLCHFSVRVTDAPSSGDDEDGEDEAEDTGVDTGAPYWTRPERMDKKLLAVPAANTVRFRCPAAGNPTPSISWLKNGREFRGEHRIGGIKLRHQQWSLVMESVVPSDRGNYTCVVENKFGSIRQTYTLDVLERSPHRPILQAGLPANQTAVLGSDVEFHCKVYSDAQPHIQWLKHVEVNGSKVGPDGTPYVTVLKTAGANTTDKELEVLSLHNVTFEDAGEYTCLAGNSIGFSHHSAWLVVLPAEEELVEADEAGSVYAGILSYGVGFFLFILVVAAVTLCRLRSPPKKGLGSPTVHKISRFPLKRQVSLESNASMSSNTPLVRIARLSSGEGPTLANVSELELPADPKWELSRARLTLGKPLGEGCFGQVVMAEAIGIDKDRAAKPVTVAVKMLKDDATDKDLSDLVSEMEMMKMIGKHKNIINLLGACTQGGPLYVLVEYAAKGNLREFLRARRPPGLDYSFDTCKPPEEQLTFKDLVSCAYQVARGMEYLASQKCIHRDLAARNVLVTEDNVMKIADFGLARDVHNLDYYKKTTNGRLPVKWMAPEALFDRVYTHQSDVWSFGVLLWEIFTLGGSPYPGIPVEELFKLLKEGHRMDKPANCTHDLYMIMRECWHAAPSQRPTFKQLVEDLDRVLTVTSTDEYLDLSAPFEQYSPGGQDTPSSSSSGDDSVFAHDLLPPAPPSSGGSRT", "test": "FGFR3 domain specificity of binding"}, "ERK1/2 phosphorylation": {"system": "ERK1/2 phosphorylation", "test": "FGF-induced ERK phosphorylation in primary myeloma cells (flow cytometry)", "format": "cell-based, human", "conditions": "5 μg/ml, 2 h pre-incubation", "description": "FIGS. 6 A-B are flow cytometry charts of human primary myeloma cells treated with anti-FGFR antibody PRO-001. A: Freshly isolated BMSCs were stained with PRO-001 (black line) or control antibody (grey line) and then stained with PE-conjugated anti-human secondary antibody. B: Primary myeloma cells were incubated in the absence (filled) or presence of FGF (light line) or pre-incubated with 5 μg/ml PRO-001 (dark line) for 2 h and then stimulated with FGF. ERK1/2 phosphorylation was assessed by flow cytometry analysis.\nDetermination of ERK1/2 phosphorylation by flow cytometry has been described previously (Chow S, et al., Cytometry 2001; 46:72-78). Cells were serum-starved overnight and then stimulated with 30 ng/ml of aFGF and 10 μg/ml heparin for 10 minutes at 37° C. The cells were immediately fixed by adding 10% formaldehyde directly into the culture medium to obtain a final concentration of 2%. Cells were incubated in fixative for 10 min at 37° C. then on ice for an additional 2 minutes. The cells were permeabilized by adding ice-cold methanol (to a final concentration of 90%) while vortexing and incubated on ice for 30 minutes. […] Flow cytometry was performed on a FACSCaliber® flow cytometer (BD Biosciences, San Jose, Calif.) and analyzed using Cellquest® software (Becton Dickinson). […]"}, "FGFR3^S249C": {"molecular_target": "T1, FGFR3^S249C (Homo sapiens, UniProt P22607, S249C)", "T1 construct": "was transfected with full length FGFR1 (FDCP-FGFR1), FGFR2 (FDCP-FGFR2), FGFR3 (FDCP-FGFR3) or FGFR3^S249C mutant cDNAs; expressed in transfected cells; host or cells: FDCP-1 mouse myeloid progenitor cell line", "T1 sequence (P22607 23-806 S249C)": "as the sequence (P22607 23-806) above, with S227C counted along it", "test": "FGF-independent proliferation of FDCP-FGFR3^S249C cells in vitro (XTT)", "format": "cell-based", "conditions": "two days", "description": "FIG. 8A is a graph showing viability of FDCP-FGFR3^S249C. Cells were cultured in the presence of increasing amounts of PRO-001 or a control antibody (C) for two days. Cell proliferation was determined by XTT analysis. Data are the average of duplicate cultures.\nNon-transformed rat chondrocyte cell line expressing PGFR3 in an inducible manner (RCJ-FGFR3) has been described previously (Rauchenberger R. et al. J. Biol. Chem. 2003; 278:38194-205). Cells were maintained in α-Minimum Essential Media supplemented with 15% fetal calf serum (FCS), 2 mM L-Glutamine, 100 U/ml penicillin, 100 μg/ml streptomycin, 600 μg/ml G418 (Gibco BRL, Ontario, Canada), 2 μg/ml Tetracyclin (Sigma, Ontario, Canada), and 50 μg/ml HygromycinB (Gibco BRL). […]\nCell viability was assessed by 3-(4,5-dimethylthiazol)-2,5-diphenyl tetrazolium (MTT) or (2,3-bis(2-methoxy-4-nitro-5-sulphophenyl)-5-[(phenylamino) carbonyl]-2H-tetrazolium hydroxide (XTT) dye absorbance where indicated. Cells were seeded in 96-well plates at a density of 20,000 (FDCP-1 cells), 5,000 (B9 cells) or 25,000 cells (MM cell lines) per well in culture medium. Cells were incubated in the absence or presence of one of the following cytokines: 10 ng/ml FGF9 and 5 μg/ml heparin, 1% murine IL-6, 50 ng/ml IGF-1 or 50 ng/ml human IL-6 where indicated and increasing concentrations of PRO-001, control antibody (purified human Fab) or 100 nM PD173074. […]"}}}
{"molecule": "PRO-001: human anti-FGFR3 Fab from HuCAL library; VH-CDR3 SEQ ID NO:1, VL-CDR3 SEQ ID NO:10; VH SEQ ID NO:19, VL SEQ ID NO:28 (antibody, V domains shown) VH: QVQLQQSGPGLVKPSQTLSLTCAISGDSVSSNSAAWNWIRQSPGRGLEWLGRTYYRSKWYNDYAVSVKSRITINPDTSKNQFSLQLNSVTPEDTAVYYCARSYYPDFDYWGQGTLVTVSS VL: DIELTQPPSVSVAPGQTARISCSGDALGDKYASWYQQKPGQAPVLVIYDDSDRPSGIPERFSGSNSGNTATLTISGTQAEDEADYYCQSYDGPDLWVFGGGTKLTVLGQ", "values": [{"measurement": "FGFR3 Domain Specificity", "setting": "FGFR3", "value": 2}, {"measurement": "FGF-induced ERK phosphorylation in primary myeloma cells", "setting": "ERK1/2 phosphorylation", "value": "blocked FGF-induced ERK phosphorylation"}, {"measurement": "FGF-independent proliferation of FDCP-FGFR3^S249C in vitro", "setting": "FGFR3^S249C", "value": "efficiently blocked"}]}
